Test results as given in the supplement of paper PMC12042874.
± gives the uncertainty stated by the source.

Assay: amyloid nucleation score (Sup35N fusion, yeast selection) (log enrichment); library NNK1; higher = more nucleation; inactive = no reads after selection
Procedure, shortened: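 Peptides of 20 random codons, each fused to Sup35N, were expressed in psi-negative yeast. Cells were induced with 100 μM copper sulfate for 24 hours and grown 7 days at 30°C on medium lacking adenine and uracil, and plasmid inserts before and after selection were Illumina-sequenced. Nucleation scores are DiMSum log enrichments of output over input reads, centred on the mode score of non-aggregating sequences, and sequences under 100 input reads were excluded.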

**Q.** Which amyloid nucleation score does the source give for SYYYHV here?
**A.** 1.17 ± 0.66

**Q.** With YGSMVMDVEAR as the substance, how does the amyloid nucleation score read?
**A.** -0.001 ± 0.45

**Q.** Which amyloid nucleation score does the source give for VCNIPNFCQKQCLSFTTIRY here?
**A.** 2 ± 0.12

**Q.** For VIWSNWRRRVPEGPDERYKR, which amyloid nucleation score is on record?
**A.** 0.649 ± 0.46

**Q.** With LRDTRAWVLN as the substance, how does the amyloid nucleation score read?
**A.** -0.295 ± 0.43

**Q.** Which amyloid nucleation score does the source give for CLVKTSSVSTIWLVSCNTRT here?
**A.** 0.648 ± 0.55

**Q.** Which amyloid nucleation score does the source give for VVLEHVDYHS here?
**A.** 0.822 ± 0.52

**Q.** With MEPLVTQCRHKG as the substance, how does the amyloid nucleation score read?
**A.** -1.31 ± 1.1

**Q.** With YTRFN as the substance, how does the amyloid nucleation score read?
**A.** -1.66 ± 1.6

**Q.** For VHCLLAGRKMNFGLFCINVQ, which amyloid nucleation score is on record?
**A.** -0.025 ± 0.68

**Q.** Which amyloid nucleation score does the source give for YAKHFPVLRTCLLNSVWGQG here?
**A.** 1.33 ± 0.57

**Q.** For NLICDLGNSVTMSVRDDQTV, which amyloid nucleation score is on record?
**A.** -0.013 ± 0.36

**Q.** For YFDVL, which amyloid nucleation score is on record?
**A.** -0.537 ± 0.48

**Q.** With AFRRRGSVPRGRASPHIFVV as the substance, how does the amyloid nucleation score read?
**A.** 7.948 ± 0.065

**Q.** For RSDYVNDGEYWAFRDRMMNM, which amyloid nucleation score is on record?
**A.** -0.126 ± 0.35

**Q.** Which amyloid nucleation score does the source give for FISAACEEPVTFMGNYGGYG here?
**A.** 0.02 ± 0.53

**Q.** Which amyloid nucleation score does the source give for GMRLGTRSLQHQRWCAMLYL here?
**A.** -1.37 ± 1.8

**Q.** Which amyloid nucleation score does the source give for IYSNKRTNMLMCMYNSVRGH here?
**A.** 0.243 ± 0.35

**Q.** Which amyloid nucleation score does the source give for IDNMGT here?
**A.** 2.4 ± 0.12

**Q.** For LHCARGLVRRNMSSSLRWLA, which amyloid nucleation score is on record?
**A.** inactive

**Q.** For CYSAVPIYDFKYRPAGYYIS, which amyloid nucleation score is on record?
**A.** inactive

**Q.** Which amyloid nucleation score does the source give for QGAGILTYPRALRHWVVRRM here?
**A.** 0.12 ± 0.51

**Q.** Which amyloid nucleation score does the source give for VLGSKKWDDLGYLYCRLCTH here?
**A.** 0.64 ± 0.65

**Q.** With SRLQLNWLQPRWY as the substance, how does the amyloid nucleation score read?
**A.** 4.27 ± 0.077

**Q.** For FYTLKFMVKALTVKKGVCVV, which amyloid nucleation score is on record?
**A.** inactive

**Q.** With CFGASNSLLFVDSSAWGSSG as the substance, how does the amyloid nucleation score read?
**A.** -0.242 ± 0.5

**Q.** With SIAFYFFKPLYVLVPNMFGY as the substance, how does the amyloid nucleation score read?
**A.** 6.15 ± 0.073

**Q.** For MCRLTPRIITDY, which amyloid nucleation score is on record?
**A.** 0.244 ± 0.28

**Q.** Which amyloid nucleation score does the source give for NMSGMVLGLVLTATWSFMSV here?
**A.** 0.588 ± 0.45

**Q.** For GRSGCCWMS, which amyloid nucleation score is on record?
**A.** 2.77 ± 0.19

**Q.** For DFLIAVMEQSMAQFKGHSSD, which amyloid nucleation score is on record?
**A.** 0.071 ± 1.2

**Q.** Which amyloid nucleation score does the source give for NACRCVYSGRVSAYDVRVRN here?
**A.** 0 ± 0.6

**Q.** With LCKPCLGY as the substance, how does the amyloid nucleation score read?
**A.** 0.639 ± 0.24

**Q.** For LVNGTMFINPCYVQGRCKEM, which amyloid nucleation score is on record?
**A.** 2.27 ± 0.12

**Q.** For LDWAWFYCSRNKRFSTILFR, which amyloid nucleation score is on record?
**A.** 0.138 ± 0.79

**Q.** Which amyloid nucleation score does the source give for RLYNLTSVRKFVLLSSM here?
**A.** 0.235 ± 0.4

**Q.** For NCGVYIVYQKRLQAVGYCAN, which amyloid nucleation score is on record?
**A.** -0.312 ± 0.3

**Q.** For KDVMYTYFIAISDLGIRNPL, which amyloid nucleation score is on record?
**A.** 1.3 ± 0.56

**Q.** For GMYRSVCDKVYRGCTIEVVV, which amyloid nucleation score is on record?
**A.** 1.55 ± 0.54

**Q.** With KYWVGWAVSFCVWYLTRLWE as the substance, how does the amyloid nucleation score read?
**A.** 0.337 ± 0.67

**Q.** Which amyloid nucleation score does the source give for GSSAFRINLFFLSIVGYRRS here?
**A.** 5.61 ± 0.062

**Q.** For LYKKICKALSYIMDLTRVLP, which amyloid nucleation score is on record?
**A.** -1.54 ± 2.1

**Q.** With NCSGCIWVRMCLNHFGVCTD as the substance, how does the amyloid nucleation score read?
**A.** 2.38 ± 0.16

**Q.** With FRRLRMLLILASKFGVD as the substance, how does the amyloid nucleation score read?
**A.** -0.392 ± 0.34

**Q.** For GEVFFLVRSSVVCWISLICA, which amyloid nucleation score is on record?
**A.** -0.109 ± 0.39

**Q.** For NGGYYAMGVGFLYVFALCHD, which amyloid nucleation score is on record?
**A.** 2.05 ± 0.27

**Q.** For KSSNLVYVHTAHQRGYYCNQ, which amyloid nucleation score is on record?
**A.** 0.3 ± 0.41

**Q.** With TTMILWQTQYDYLG as the substance, how does the amyloid nucleation score read?
**A.** -0.247 ± 0.58

**Q.** For FDGMYNDVRTRNVGARYF, which amyloid nucleation score is on record?
**A.** 0.552 ± 0.64

**Q.** With LGVPRVISCSCHLSVRNSAK as the substance, how does the amyloid nucleation score read?
**A.** 0.413 ± 0.9

**Q.** With CLRLELDKF as the substance, how does the amyloid nucleation score read?
**A.** 3.34 ± 0.12

**Q.** Which amyloid nucleation score does the source give for RSRSGC here?
**A.** 0.441 ± 0.51

**Q.** For RELNSRPVFYLLGMDQSIGA, which amyloid nucleation score is on record?
**A.** 4.43 ± 0.14

**Q.** For SCNHKNSRSHLALQS, which amyloid nucleation score is on record?
**A.** 1.6 ± 0.44

**Q.** Which amyloid nucleation score does the source give for SKLCVCGTASLLHYTVTERV here?
**A.** 5.29 ± 0.11

**Q.** Which amyloid nucleation score does the source give for SLSQFSKPGYICVNMVCSQA here?
**A.** 1.36 ± 0.48

**Q.** With IEQMCTHVNYFGD as the substance, how does the amyloid nucleation score read?
**A.** -0.548 ± 0.86

**Q.** Which amyloid nucleation score does the source give for RILCHLTNRWFEFDEVLVGV here?
**A.** 0.835 ± 0.48

**Q.** For LAQELGR, which amyloid nucleation score is on record?
**A.** 1.68 ± 0.73

**Q.** For HGTCRC, which amyloid nucleation score is on record?
**A.** 0.034 ± 0.68

**Q.** For DINNCSSEGRTYPFVIELPP, which amyloid nucleation score is on record?
**A.** 1.03 ± 0.76

**Q.** With MGLGVRVEKSSCACG as the substance, how does the amyloid nucleation score read?
**A.** 0.841 ± 0.37

**Q.** Which amyloid nucleation score does the source give for RWGMFTWVYFMLYALWIMTL here?
**A.** 0.042 ± 0.44

**Q.** For LLLTWFFPQHASRVNMSYSS, which amyloid nucleation score is on record?
**A.** 0.024 ± 0.39

**Q.** With FHFWEMFTQEAAPIWRWF as the substance, how does the amyloid nucleation score read?
**A.** -0.139 ± 0.75

**Q.** With SCKRSA as the substance, how does the amyloid nucleation score read?
**A.** 0.578 ± 0.4

**Q.** Which amyloid nucleation score does the source give for YSEWRSSHNRFMSRPLSTPR here?
**A.** -0.992 ± 0.55

**Q.** For CCRGCPERLLSWGGSPRATE, which amyloid nucleation score is on record?
**A.** -0.334 ± 0.39

**Q.** Which amyloid nucleation score does the source give for LFLHVSMVS here?
**A.** -1.31 ± 1.4

**Q.** With NWIGS as the substance, how does the amyloid nucleation score read?
**A.** 1.44 ± 0.41

**Q.** Which amyloid nucleation score does the source give for SDCRKAFIMSHRSDGNLEFV here?
**A.** 0.382 ± 1.4

**Q.** Which amyloid nucleation score does the source give for HFVASDYHNVGSA here?
**A.** inactive

**Q.** For LWNLVLKCD, which amyloid nucleation score is on record?
**A.** -0.215 ± 0.29

**Q.** Which amyloid nucleation score does the source give for GRRRSDQASTVRRSLCEGMA here?
**A.** 0.451 ± 0.67

**Q.** For HCCSYLLKR, which amyloid nucleation score is on record?
**A.** -0.174 ± 0.61

**Q.** For SWRSSTCSALVQGQYKA, which amyloid nucleation score is on record?
**A.** -0.051 ± 0.32

**Q.** With TVYYDSIRSMYGYGGGVASR as the substance, how does the amyloid nucleation score read?
**A.** -0.344 ± 0.49

**Q.** With SFCLFNVIYQFIGKRCPNSG as the substance, how does the amyloid nucleation score read?
**A.** 3.82 ± 0.1

**Q.** With GKPWSSCHENSLINMDHSDV as the substance, how does the amyloid nucleation score read?
**A.** inactive

**Q.** For RYRDYSRRIDCLCYVSVPVY, which amyloid nucleation score is on record?
**A.** 0.564 ± 0.4

**Q.** Which amyloid nucleation score does the source give for SHTADFRVLLRLIQYERGLR here?
**A.** 3.44 ± 0.18

**Q.** Which amyloid nucleation score does the source give for LLTTIGQTRMVIHKGIERNE here?
**A.** 1.77 ± 0.14

**Q.** For NCSGSRLFLMSLSL, which amyloid nucleation score is on record?
**A.** 6.52 ± 0.066

**Q.** Which amyloid nucleation score does the source give for SNVDSWFGRVTSA here?
**A.** -0.698 ± 0.33

**Q.** With AAFSDPRNRLMKPVELKHAL as the substance, how does the amyloid nucleation score read?
**A.** 1.31 ± 0.9

**Q.** For WVRNSLCRQIRRSANHQSGA, which amyloid nucleation score is on record?
**A.** inactive
